Measured values from patent US20190092852A1.
Like-named read-outs stand apart in the source and are kept apart here.

T1: human IL-33 (R&D Systems, #3625-IL-010/CF) (human) (UniProt O95760)
T1 sequence (looked up): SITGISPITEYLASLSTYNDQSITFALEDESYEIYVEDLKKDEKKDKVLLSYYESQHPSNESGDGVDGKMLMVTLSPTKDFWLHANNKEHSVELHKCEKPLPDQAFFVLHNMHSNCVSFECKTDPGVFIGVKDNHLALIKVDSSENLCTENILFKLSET

T2: biotinylated human IL-33 (human) (UniProt O95760)
T2 sequence (biotin-labeled with EZ-LINK NHS-PEG4-Biotin, looked up): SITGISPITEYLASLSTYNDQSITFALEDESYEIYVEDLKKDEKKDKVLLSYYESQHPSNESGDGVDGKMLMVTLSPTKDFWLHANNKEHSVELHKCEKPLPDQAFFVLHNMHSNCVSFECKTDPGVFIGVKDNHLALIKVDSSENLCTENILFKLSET


Key:
[1] = biological target: T1, human IL-33 (R&D Systems, #3625-IL-010/CF) (human)
[2] = biological target: T1, human IL-33 (R&D Systems, #3625-IL-010/CF) (human); remark: listed apart in the source
[3] = biological target: T1, human IL-33 (R&D Systems, #3625-IL-010/CF) (human); remark: listed apart in the source
[4] = biological target: T1, human IL-33 (R&D Systems, #3625-IL-010/CF) (human); remark: listed apart in the source
[5] = biological target: T1, human IL-33 (R&D Systems, #3625-IL-010/CF) (human); remark: listed apart in the source
[6] = biological target: T1, human IL-33 (R&D Systems, #3625-IL-010/CF) (human); remark: listed apart in the source
[7] = biological target: T1, human IL-33 (R&D Systems, #3625-IL-010/CF) (human); experiment: SPR Biacore T200, 25 C
[8] = biological target: T1, human IL-33 (R&D Systems, #3625-IL-010/CF) (human); experiment: SPR Biacore T200, 37 C
[9] = biological target: T2, biotinylated human IL-33 (human); experiment: competitive ELISA, biotin-huIL-33 to coated hST2-Fc
[10] = biological target: T1, human IL-33 (R&D Systems, #3625-IL-010/CF) (human); remark: listed apart in the source
[11] = biological target: T1, human IL-33 (R&D Systems, #3625-IL-010/CF) (human); remark: listed apart in the source
[12] = biological target: human ST2L on HEK-BLUE IL-33/IL-1beta cells (human) (UniProt Q01638)
[13] = biological target: human ST2L on HEK-BLUE IL-33/IL-1beta cells (human) (UniProt Q01638); remark: listed apart in the source

Sequence of human ST2L on HEK-BLUE IL-33/IL-1beta cells (human) (Q01638 19-556 limits assumed): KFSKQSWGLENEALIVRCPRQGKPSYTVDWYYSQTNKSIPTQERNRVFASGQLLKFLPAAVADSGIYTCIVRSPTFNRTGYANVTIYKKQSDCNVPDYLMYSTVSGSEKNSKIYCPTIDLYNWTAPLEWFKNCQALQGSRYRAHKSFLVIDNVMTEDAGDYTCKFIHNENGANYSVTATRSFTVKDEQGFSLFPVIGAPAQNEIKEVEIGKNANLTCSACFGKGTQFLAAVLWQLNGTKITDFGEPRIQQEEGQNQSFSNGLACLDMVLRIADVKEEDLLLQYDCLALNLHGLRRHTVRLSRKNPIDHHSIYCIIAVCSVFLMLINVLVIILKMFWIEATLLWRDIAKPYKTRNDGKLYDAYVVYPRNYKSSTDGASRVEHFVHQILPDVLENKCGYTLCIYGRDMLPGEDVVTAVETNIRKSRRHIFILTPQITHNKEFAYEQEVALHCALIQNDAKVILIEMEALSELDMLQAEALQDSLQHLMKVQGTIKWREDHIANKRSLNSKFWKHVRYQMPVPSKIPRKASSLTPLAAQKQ

IC50; SEAP reporter (OD 620), HEK-BLUE IL-33/IL-1beta cells, 10 pM hIL-33 [1] | IC50; IFN-gamma ELISA, primary human NK cells, 260 pM hIL-33 + IL-12 [2] | IC50, IL-33-induced phospho-p38 in primary human basophils, 500 pM hIL-33 [3] | IC50 (read off the curve) [4] | Ph-p38 MFI at 0.4 nM Ab (500 pM human IL-33, primary basophils) [5] | Ph-p38 MFI at 2 nM Ab (500 pM human IL-33, primary basophils) [6] | Kd [7] | koff [7] | kon [7] | t1/2 [7] | Kd [8] | koff [8] | kon [8] | t1/2 [8] | IC50 [9] | Maximum Blocking [9] | IC50 (read off the curve) [10] | IC50 (read off the curve) [11] | EC50 (SEAP reporter OD 620, HEK-BLUE IL-33/IL-1beta cells) [12] | EC50 (SEAP reporter OD 620, HEK-BLUE IL-33/IL-1beta cells) [13] | Binder
3.8e-11 M | 2.4e-10 M | 4.8e-13 M | 0.0005 nM | 105 MFI | 29 MFI | 0.67 nM | 0.00039 s⁻¹ | 581000 M⁻¹ s⁻¹ | 30 min | 0.302 nM | 0.000413 s⁻¹ | 1.37e+06 M⁻¹ s⁻¹ | 28 min | 0.092 nM | 78% |  |  |  |  | H4H9660P (antibody, from another filing, IgG4, V domains shown) VH: EVQLVESGGGLVQPGGSLRLSCAASGITLSSYGMSWVRQAPGKGLEWVASIFGSGGGPYYADSVKGRFTMSRDNSKNTLYLQMNSLRAEDTAVYYCAKDRYSGSYYGGFDYWGRGTLVTVSS VL: DIQMTQSPSSVSASVGDRVTITCRASQGITSWLAWYQQKPGKAPTLLIYAASSLQTGVPSRFSGSGSGTDFTLTISSLQPEHFATYYCQQANSFPPTFGGGTKVEIK
8.2e-10 M | 1.2e-09 M | 9.1e-13 M |  | 132 MFI | 61 MFI | 0.56 nM | 0.001 s⁻¹ | 1.79e+06 M⁻¹ s⁻¹ | 12 min | 0.457 nM | 0.00158 s⁻¹ | 3.47e+06 M⁻¹ s⁻¹ | 7 min | 0.97 nM | 73% | 0.0009 nM |  |  |  | H4H9676P (antibody, from another filing, IgG4, V domains shown) VH: EVQLVESGGGLVQPGGSLRLSCSASGFTFSSYAMNWVRQAPGKGLEWVTAISGSGGGTYYADSVKGRFTISRDNSKNSLFLQLNSLRAEDTAVYYCAKQTYTSSWYGGFDIWGQGTMVTVSS VL: DIQMTQSPSSVSASVGDRVTITCRASQGFSSWLAWYQQIPGKAPKLLIYAASRLQSGVPSRFRGSGSGTDFTLTISSLQPEDFATYYCQQANSFPLTFGGGTKVEIK
1e-09 M |  | 2e-12 M |  | 111 MFI | 68 MFI | 0.525 nM | 0.000328 s⁻¹ | 626000 M⁻¹ s⁻¹ | 35 min | 0.411 nM | 0.000497 s⁻¹ | 1.21e+06 M⁻¹ s⁻¹ | 23 min | 0.41 nM | 77% |  | 0.002 nM |  |  | H4H9667P (antibody, from another filing, IgG4, V domains shown) VH: EVQLVESGGGLVQPGGSLRLSCAASGFTFSTYSMHWVRQAPGKGLEYVSTINNNGDTTYYADSVKGRFTISRDNSKNTLYLQLGSLRPEDMAVYYCARQTYTSSWYGGFDSWGQGTLVTVSS VL: DIQMTQSPSSVSASVGDRVTITCRASQGITSWLAWYQQKPGKAPKLLIYAASNLQSGVPSRFSGSGSGTDFTLTITSLQPEDFATYYCQQANSLPFTFGPGTKVDIK
 |  |  |  |  |  |  |  |  |  |  |  |  |  |  |  |  |  | 0.0087 nM | 0.021 nM | cynomolgus monkey N-terminal 6-His-tagged and C-terminal Avi-tagged IL-33 (S112-T270) (ligand) MHHHHHHGENLYFQGSITGISPITESLASLSTYNDQSITFALEDESYEIYVEDLKKDKKKDKVLLSYYESQHPSSESGDGVDGKMLMVTLSPTKDFWLQANNKEHSVELHKCEKPLPDQAFFVLHNRSFNCVSFECKTDPGVFIGVKDNHLALIKVDYSENLGSENILFKLSETGNSGGGLNDIFEAQKIEWHE
